From US20120277161A1 (INTER K, published 2012) come the findings set out here.

human ERK2, sequence (P28482 whole entry): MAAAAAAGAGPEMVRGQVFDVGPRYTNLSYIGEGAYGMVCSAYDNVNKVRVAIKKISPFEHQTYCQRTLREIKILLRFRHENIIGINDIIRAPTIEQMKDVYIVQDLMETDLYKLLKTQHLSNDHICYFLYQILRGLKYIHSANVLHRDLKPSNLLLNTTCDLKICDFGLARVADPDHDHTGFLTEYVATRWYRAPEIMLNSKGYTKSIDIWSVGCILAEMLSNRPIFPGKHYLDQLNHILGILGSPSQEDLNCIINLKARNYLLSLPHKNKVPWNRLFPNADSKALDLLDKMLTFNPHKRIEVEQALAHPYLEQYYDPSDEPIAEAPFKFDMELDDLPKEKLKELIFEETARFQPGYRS

The first experiment has as its target human ERK2 (human, UniProt P28482 1-360). As to the kind of experiment: cell-based or functional assay.
As to RSRARNPLYR [RSRARNPLYR peptide], the “inhibition of ERK2 activity relative to control, cell-free assay, peptide at 50 µM” value is 4 % inhibition.

In another experiment the target is cellular Src tyrosine kinase (c-Src) (human, UniProt P12931 1-536, limits assumed). Kind of experiment: cell-based or functional assay.
Turning to RSKAKWQTGTNPLYR [RSKAKWQTGTNPLYR peptide], the “% Inhibition of control, c-Src tyrosine kinase activity, cell-free assay, peptide at 50 µM” value (“% Inhibition … cell-free assay, peptide at 50 µM” for short) was 44 % inhibition.

As to RSKAKNPLYR [RSKAKNPLYR peptide], the “% Inhibition … cell-free assay, peptide at 50 µM” value is 57 % inhibition.

For NPLYR [NPLYR peptide], the “% Inhibition … cell-free assay, peptide at 50 µM” value came to 0 % inhibition.

RSKAK [RSKAK peptide]: the “% Inhibition … cell-free assay, peptide at 50 µM” value was determined as 3 % inhibition.

As for RSRARNPLYR [RSRARNPLYR peptide], the “% Inhibition … cell-free assay, peptide at 50 µM” value was 37 % inhibition.

Turning to RARAKNPLYK [RARAKNPLYK peptide], the “% Inhibition … cell-free assay, peptide at 50 µM” value worked out at 29 % inhibition.

In the case of KEKLKNPLFK [KEKLKNPLFK peptide], the “% Inhibition … cell-free assay, peptide at 50 µM” value is 55 % inhibition.

As for WQTGT [WQTGT peptide], the “% Inhibition … cell-free assay, peptide at 50 µM” value was determined as 0 % inhibition.
